What all share (experiment): fluorescence polarization
A general note: In fluorescence polarisation assays a small probe gives low polarisation when free and higher when bound to something large.

The target of series [1] is T1, DNMT3B Δ214 (3BΔ214);DNMT3L CLD (3L) (human;human?, UniProt Q9UBC3;Q9UJW3 215-853;179-379, |).
Another series deals with DNMT3B PWWP K268A (human, UniProt Q9UBC3 206-355, K268A).
Another series has as its target DNMT3B PWWP domain (human, UniProt Q9UBC3 206-355).
Series [2] has as its target T1, DNMT3B Δ214 (3BΔ214);DNMT3L CLD (3L). The source holds these as a separate data set.
Series [3] has the same target. This is another data set of the same source.
For series [4] the target is unchanged. This is another data set of the same source.
The target is the same in series [5]. This is another data set of the same source.

Like-named read-outs stand apart in the source and are kept apart here.

T1 sequence (Q9UJW3 179-379, stated change not applied, chain 2 of 2, other chains not shown): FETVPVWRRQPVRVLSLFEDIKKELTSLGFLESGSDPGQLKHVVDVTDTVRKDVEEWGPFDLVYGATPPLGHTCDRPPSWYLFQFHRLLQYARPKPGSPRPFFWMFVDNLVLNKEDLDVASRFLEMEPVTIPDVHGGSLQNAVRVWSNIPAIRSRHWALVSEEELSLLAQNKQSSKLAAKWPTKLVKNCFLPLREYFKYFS

B1: 30-bp FAM dsDNA (dsDNA)
DNA 1: CTGAATACTACTTGCGCTCTCTAACCTGAT
DNA 2: ATCAGGTTAGAGAGCGCAAGTAGTATTCAG
For orientation: Kd means the concentration at which binding is half-saturated. Read a low Kd as a tighter complex. As to B1, the Kd in series [1] was 3.51 ± 0.28 µM; in the series with DNMT3B PWWP K268A it was 24.3 ± 2 µM; in the series with DNMT3B PWWP domain it was 9.12 ± 0.67 µM; in series [2], 2.34 ± 0.15 µM; in series [3], 0.85 ± 0.07 µM; in series [4], 3.5 ± 0.3 µM. In series [5], the Kd was 1.39 ± 0.12 µM.

The record behind these values is PMC11939060.
